US20060067886A1, “Gastrin receptor-avid peptide conjugates” (priority 1997, published 2006)
Where two headings read alike, the source gives them in different places.

Tests used:
[1] = tested on: PC-3 human tumor xenografts; assay: in vivo
Description: (§1) In vivo pharmacokinetic studies in human tumor bearing SCID mice. […] The xenograft models were produced by bilateral flank inoculation of 5×10^6 cells (PC-3 or MDA-MB-231 cells) per site. Four to six weeks post inoculation, palpable tumors were observed. At this point, the mice were injected with 4 μCi of the complex in […] of isotonic saline via the tail vein. The mice were euthanized and tissues and organs were excised from the animals at selected times post-injection (p.i.), including 15 minutes, 30 minutes, 1 hour, 4 hours, 24 hours, 48 hours, and 72 hours p.i. Subsequently, the tissues and organs were weighed and counted in a NaI well counter and the percent injected dose (% ID) and % ID/g of each organ or tissue calculated.
(§2) The mice were injected with 4 μCi of the complex in 100 μL of isotonic saline via the tail vein. The mice were euthanized by cervical dislocation. Tissues and organs were excised from the animals following at 1 hour, 4 hour, and 24 hours post-injection (p.i.). Subsequently, the tissues and organs were weighed and counted in a NaI well counter and the percent injected dose (% ID) and % ID/g of each organ or tissue calculated.

[2] = tested on: MDA-MB-231 human tumor xenografts;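 also: SCID mice bearing bilateral flank PC-3 or MDA-MB-231 xenografts, tail-vein dosing, organs sampled from 15 min to 72 h post-injection, radioactivity measured with NaI well counter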
[3] = Biodistribution of radiometal-DOTA-BBN conjugates in CF1 normal mice; settings: 1 hour post-injection
[4] = in vivo; settings: SCID, mouse, in vivo, iv, 4 uCi, total radioactivity, Avg % ID, Heart, 24 hrs
Description: as §1, §2

[5] = molecular target: T1, GRP receptors on Swiss 3T3 cells (Mus musculus, UniProt P21729); assay: Competitive cell binding vs 125I-Tyr4-BBN, Swiss 3T3 cells
T1 construct: endogenous in cells; host or cells: Swiss 3T3 mouse fibroblasts (whole cells)
Description: The binding affinities of the synthetic BBN derivatives were assessed for GRP receptors on Swiss 3T3 cells and, in some cases, on a variety of human cancer cell lines, that express GRP receptors. […] The cell binding assay methods used to measure the IC50's is standard and used techniques previously reported [Jensen et al., 1993; Cai et al., 1994; Cai et al., 1992]. The methods used for determining IC50's for all GRP receptor binding compounds on all cell lines was similar. The specific method used to measure IC50's on Swiss 3T3 cells is briefly described as follows:
(§3) Swiss 3T3 mouse fibroblasts are grown to confluence in 48 well microtiter plates. […] The growth media was removed, the cells were washed twice with incubation media, and incubation media was returned to the cells. ^125I-Tyr4-BBN (0.01 uCi) was added to each well in the presence of increasing concentrations of the appropriate competitive peptide. Typical concentrations of displacing peptide ranged from 10-12 to 10-5 moles of displacing ligand per well. The cells were incubated at 37° C. for forty minutes in a 95% […]/5% CO2 humidified environment. At forty minutes post initiation of the incubation, the medium was discarded, and the cells were washed twice with cold incubation media. The cells were harvested from the wells following incubation in a trypsin/EDTA solution for five minutes at 37° C. Subsequently, the radioactivity, per well, was determined and the maximum % total uptake of the radiolabeled peptide was determined and normalized to 100%.
The binding affinities of the synthetic BBN derivatives were assessed for GRP receptors on Swiss 3T3 cells, PC-3 cells and CF PAC-1 cells. The IC50's of each of derivative were determined relative to (i.e., in competition with) ^125I-Tyr^4-BBN. The cell binding assay methods used to measure the IC50's is standard and was used by techniques previously reported [Jensen et al., 1993; Cai et al., 1992; Cai et al., 1994]. The methods used for determining IC50's with all BBN analogue binding to GRP receptors present on all three cell lines were similar. The specific method used to measure IC50's on Swiss 3T3 cells, is briefly described as follows:
as §3, with “microliter” for “microtiter”, “^125I-Tyr^4-BBN” for “^125I-Tyr4-BBN”, “μCi)” for “uCi)”, “10^−12” for “10-12”, “10^−5” for “10-5”, “100%. A similar procedure was used in performing cell binding assays with both the PC-3 and CFa-PAC-1 human cancer cell lines.” for “100%.”

T1 sequence (P21729 whole entry): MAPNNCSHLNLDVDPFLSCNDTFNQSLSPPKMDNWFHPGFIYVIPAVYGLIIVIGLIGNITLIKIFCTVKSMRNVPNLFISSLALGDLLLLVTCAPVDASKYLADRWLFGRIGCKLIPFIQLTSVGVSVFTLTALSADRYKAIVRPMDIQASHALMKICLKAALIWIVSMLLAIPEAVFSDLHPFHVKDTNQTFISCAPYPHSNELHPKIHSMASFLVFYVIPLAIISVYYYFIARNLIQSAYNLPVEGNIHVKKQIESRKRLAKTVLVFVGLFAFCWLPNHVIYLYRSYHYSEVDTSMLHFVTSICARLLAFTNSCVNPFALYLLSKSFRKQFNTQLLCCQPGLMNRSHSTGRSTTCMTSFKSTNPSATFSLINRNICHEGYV

CSCC[C@H](NC(=O)[C@H](CC(C)C)NC(=O)[C@H](Cc1cnc[nH]1)NC(=O)CNC(=O)[C@@H](NC(=O)[C@H](C)NC(=O)[C@H](Cc1c[nH]c2ccccc12)NC(=O)[C@H](CCC(N)=O)NC(=O)CCCCCCCNC(=O)CN1CCN(CC(=O)O)CCN(CC(=O)O)CCN(CC(=O)O)CC1)C(C)C)C(N)=O [111In-DOTA-8-Aoc-BBN[7-14]NH2] [metal not drawn]
Avg % ID, Blood ([1]; 1 hr): 0.92±0.58 % ID
Avg % ID, Carcass ([1]; 1 hr): 13.55 ± 6.05 % ID
Avg % ID, Liver ([1]; 1 hr): 1.41 ± 0.32 % ID
Avg % ID, Lung ([1]; 1 hr): 0.09 ± 0.07 % ID
Avg % ID, Pancreas ([1]; 1 hr): 3.49 ± 2.15 % ID
Avg % ID, Spleen ([1]; 1 hr): 0.09 ± 0.07 % ID
Avg % ID/gm, Liver ([1]; 1 hr): 1.34 ± 0.25 % ID/gm
Avg % ID/gm, Lung ([1]; 1 hr): 0.50 ± 0.39 % ID/gm
Avg % ID/gm, Pancreas ([1]; 1 hr): 18.80 ± 10.97 % ID/gm
Avg % ID/gm, Spleen ([1]; 1 hr): 1.39 ± 1.17 % ID/gm
Avg % ID, Carcass ([1]; 4 hrs): 2.92 ± 0.64 % ID
Avg % ID, L. Intestine ([1]; 4 hrs): 6.04 ± 2.05 % ID
Avg % ID, Liver ([1]; 4 hrs): 1.57 ± 0.72 % ID
Avg % ID, Muscle ([1]; 4 hrs): 0.0 ± 0.00 % ID
Avg % ID, Tumor ([1]; 4 hrs): 0.18 ± 0.17 % ID
Avg % ID/gm, Blood ([1]; 4 hrs): 0.27 ± 0.02 % ID/gm
Avg % ID/gm, Liver ([1]; 4 hrs): 1.44 ± 0.57 % ID/gm
Avg % ID/gm, Spleen ([1]; 4 hrs): 1.59 ± 0.27 % ID/gm
Avg % ID/gm, Stomach ([1]; 4 hrs): 0.96 ± 0.57 % ID/gm
excretion through the renal pathway ([1]; 24 hours p.i.): 87 % ID
Avg % ID, Carcass ([1]; 24 hrs): 1.69 ± 0.56 % ID
Avg % ID, Heart ([1]; 24 hrs): 0.00 ± 0.01 % ID
Avg % ID, Pancreas ([1]; 24 hrs): 1.19 ± 0.49 % ID
Avg % ID, Stomach ([1]; 24 hrs): 0.09 ± 0.02 % ID
Avg % ID/gm, Blood ([1]; 24 hrs): 0.10 ± 0.03 % ID/gm
Avg % ID/gm, Kidney ([1]; 24 hrs): 1.18 ± 0.14 % ID/gm
Avg % ID/gm, Lung ([1]; 24 hrs): 0.09 ± 0.07 % ID/gm
Avg % ID/gm, Pancreas ([1]; 24 hrs): 6.78 ± 1.15 % ID/gm
Avg % ID/gm, S. Intestine ([1]; 24 hrs): 0.89 ± 0.16 % ID/gm
Avg % ID/gm, Spleen ([1]; 24 hrs): 0.46 ± 0.20 % ID/gm
Avg % ID/gm, Stomach ([1]; 24 hrs): 0.30 ± 0.05 % ID/gm
Avg % ID, Carcass ([1]; 48 hrs): 0.57 ± 0.02 % ID
Avg % ID, Muscle ([1]; 48 hrs): 0.00 ± 0.00 % ID
Avg % ID/gm, Spleen ([1]; 48 hrs): 0.22 ± 0.22 % ID/gm
Avg % ID, Heart ([1]; 72 hrs): 0.00 ± 0.00 % ID
Avg % ID, Lung ([1]; 72 hrs): 0.00 ± 0.00 % ID
Avg % ID, Muscle ([1]; 72 hrs): 0.00 ± 0.00 % ID
Avg % ID/gm, Blood ([1]; 72 hrs): 0.01 ± 0.02 % ID/gm
Avg % ID/gm, Heart ([1]; 72 hrs): 0.01 ± 0.01 % ID/gm
Avg % ID/gm, Kidney ([1]; 72 hrs): 0.20 ± 0.02 % ID/gm
Avg % ID/gm, Muscle ([1]; 72 hrs): 0.01 ± 0.02 % ID/gm
initial tumor uptake retained ([2]; 4 hours): 46%
initial tumor uptake retained ([2]; 24 hours): 28%
Avg % ID, Blood [3]: 0.66 ± 0.13 % ID
Avg % ID, Carcass [3]: 5.01 ± 0.47 % ID
Avg % ID, Liver [3]: 1.02 ± 0.08 % ID
Avg % ID, Lung [3]: 0.07 ± 0.02 % ID
Avg % ID/gm, Heart [3]: 0.05 ± 0.02 % ID/gm
Avg % ID/gm, Kidney [3]: 2.37 ± 0.31 % ID/gm
Avg % ID/gm, L. Intestine [3]: 2.66 ± 1.07 % ID/gm
Avg % ID/gm, Lung [3]: 0.31 ± 0.07 % ID/gm
Avg % ID/gm, S. Intestine [3]: 4.43 ± 0.90 % ID/gm

CSCC[C@H](NC(=O)[C@H](CC(C)C)NC(=O)[C@H](Cc1cnc[nH]1)NC(=O)CNC(=O)[C@@H](NC(=O)[C@H](C)NC(=O)[C@H](Cc1c[nH]c2ccccc12)NC(=O)[C@H](CCC(N)=O)NC(=O)CCCCCCCNC(=O)CN1CCN(CC(=O)O)CCN(CC(=O)O)CCN(CC(=O)O)CC1)C(C)C)C(N)=O [177Lu-DOTA-8-Aoc-BBN[7-14]NH2, metal not drawn]
tissue uptake dose at 24 h [4]: 0.01 %ID

CSCC[C@H](NC(=O)[C@H](CC(C)C)NC(=O)[C@H](Cc1c[nH]cn1)NC(=O)CNC(=O)[C@@H](NC(=O)[C@H](C)NC(=O)[C@H](Cc1c[nH]c2ccccc12)NC(=O)[C@H](CCC(N)=O)NC(=O)CCCCNC(=O)COC1CSCCCSCCCSCCCSC1)C(C)C)C(N)=O [BBN-37]
IC50 [5]: 1.79 ± 0.09 nM

CSCC[C@H](NC(=O)[C@H](CC(C)C)NC(=O)[C@H](Cc1c[nH]cn1)NC(=O)CNC(=O)[C@@H](NC(=O)[C@H](C)NC(=O)[C@H](Cc1c[nH]c2ccccc12)NC(=O)[C@H](CCC(N)=O)NC(=O)CCNC(=O)COC1CSCCCSCCCSCCCSC1)C(C)C)C(N)=O [BBN-46]
IC50 [5]: 2.34 ± 0.53 nM

CSCC[C@H](NC(=O)[C@H](CC(C)C)NC(=O)[C@H](Cc1c[nH]cn1)NC(=O)CNC(=O)[C@@H](NC(=O)[C@H](C)NC(=O)[C@H](Cc1c[nH]c2ccccc12)NC(=O)[C@H](CCC(N)=O)NC(=O)CCCCCCCNC(=O)COC1CSCCCSCCCSCCCSC1)C(C)C)C(N)=O [BBN-47]
IC50 [5]: 4.19 ± 0.91 nM
